Our source for the Relative rate of lysis (ADCC, vs wild type ch4-4-20) and Koff WT/Koff mutant values is US20120219551A1.

Several values for one entry are separate records, joined by “and”; a condition that tells them apart may be missing. Identical values can stand only once.

The target in experiment [1] is FcγRIIIA on natural killer cells of human donor PBMC (human) (UniProt P08637). Put plainly: cell-based or functional assay.
In experiment [2] the target is FcγRIIA (CD32A), H131 allotype (human) (UniProt P12318). Nature of the experiment: BIAcore. For orientation: Surface plasmon resonance follows binding to a sensor surface in real time, without labels.
Chain of FcγRIIA (CD32A), H131 allotype (human) (P12318 34-217 limits assumed): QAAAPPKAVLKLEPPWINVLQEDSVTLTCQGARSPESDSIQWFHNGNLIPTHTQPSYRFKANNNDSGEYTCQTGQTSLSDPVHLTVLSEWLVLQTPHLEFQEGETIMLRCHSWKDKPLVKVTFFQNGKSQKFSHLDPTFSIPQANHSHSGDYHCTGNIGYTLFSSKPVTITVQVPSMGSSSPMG
Experiment [3] has as its target FcγRIIB (CD32B) (human) (UniProt P31994). Nature of the experiment: BIAcore.
Experiment [4] addresses FcγRIIIA (CD16A), F158 allotype (human) (UniProt P08637). Nature of the experiment: BIAcore.
Experiment [5] has as its target FcγRIIIA (CD16A), V158 allotype (human) (UniProt P08637). Nature of the experiment: BIAcore.
Experiment [6] addresses FcγRIIB (CD32B) (human) (UniProt P31994). Put plainly: BIAcore (as Table 27).
The target of experiment [7] is FcγRIIIA (CD16A), F158 allotype (human) (UniProt P08637). Nature of the experiment: BIAcore (as Table 27).
Chain of FcγRIIIA (CD16A), F158 allotype (human) (P08637 17-208 limits assumed): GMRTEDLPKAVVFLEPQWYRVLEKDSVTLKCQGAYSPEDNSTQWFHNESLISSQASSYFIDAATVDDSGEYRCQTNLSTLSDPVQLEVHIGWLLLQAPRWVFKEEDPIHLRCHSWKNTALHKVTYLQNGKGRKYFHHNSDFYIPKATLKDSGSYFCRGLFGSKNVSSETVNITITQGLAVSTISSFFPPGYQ
In experiment [8] the target is FcγRIIIA (CD16A), V158 allotype (human) (UniProt P08637). Put plainly: BIAcore (as Table 27).
Chain of FcγRIIIA (CD16A), V158 allotype (human) (P08637 17-208 F176V limits assumed): as the sequence (P08637 17-208 limits assumed) above, with F160V counted along it

Chain of FcγRIIB (CD32B) (human) (P31994 43-217 limits assumed): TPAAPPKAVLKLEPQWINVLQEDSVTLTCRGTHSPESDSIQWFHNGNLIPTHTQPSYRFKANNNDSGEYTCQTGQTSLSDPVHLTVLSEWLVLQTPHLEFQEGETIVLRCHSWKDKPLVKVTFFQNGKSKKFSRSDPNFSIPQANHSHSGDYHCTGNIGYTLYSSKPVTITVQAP
Chain of FcγRIIIA on natural killer cells of human donor PBMC (human) (P08637 17-254): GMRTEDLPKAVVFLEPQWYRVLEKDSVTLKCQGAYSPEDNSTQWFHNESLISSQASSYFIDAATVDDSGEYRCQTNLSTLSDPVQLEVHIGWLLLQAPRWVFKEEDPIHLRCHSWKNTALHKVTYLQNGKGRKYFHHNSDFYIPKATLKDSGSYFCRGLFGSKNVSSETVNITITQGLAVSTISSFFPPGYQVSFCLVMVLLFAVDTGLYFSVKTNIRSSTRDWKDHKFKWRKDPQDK

Regarding “ch4-4-20 MgFc42 (D221E, D270E, V308A, Q311H, P396L, G402D) (antibody)”, in experiment [1], the Relative rate of lysis (ADCC, vs wild type ch4-4-20) is 3.17.

Consider “ch4-4-20 MgFc44 (K334N, P396L) (antibody)”, for which, in experiment [1], the Relative rate of lysis (ADCC, vs wild type ch4-4-20) was found to be 2.43.

“ch4-4-20 MgFc46 (P217S, P396L) (antibody)” displayed a Relative rate of lysis (ADCC, vs wild type ch4-4-20) in experiment [1] of 2.04.

“ch4-4-20 MgFc47 (K210M, P396L) (antibody)” yielded a Relative rate of lysis (ADCC, vs wild type ch4-4-20) in experiment [1] of 2.02.

For “ch4-4-20 MgFc48 (V379M, P396L) (antibody)”, the Relative rate of lysis (ADCC, vs wild type ch4-4-20) in experiment [1] stood at 2.01.

In turn, “ch4-4-20 MgFc50 (P247S, P396L) (antibody)” yielded a Relative rate of lysis (ADCC, vs wild type ch4-4-20) in experiment [1] of 2.1.

In experiment [1], “ch4-4-20 MgFc51 (Q419H, P396L) (antibody)” came in with a Relative rate of lysis (ADCC, vs wild type ch4-4-20) of 2.24.

Take “ch4-4-20 MgFc52 (V240A, P396L) (antibody)”: the Relative rate of lysis (ADCC, vs wild type ch4-4-20) in experiment [1] was found to be 2.35.

As for “ch4-4-20 MgFc54 (F243L, V305I, A378D, F404S, P396L) (antibody)”, the Relative rate of lysis (ADCC, vs wild type ch4-4-20) in experiment [1] turned out to be 3.59.

In experiment [1], “ch4-4-20 MgFc55 (R255L, P396L) (antibody)” displayed a Relative rate of lysis (ADCC, vs wild type ch4-4-20) of 2.79.

Substance “ch4-4-20 MgFc57 (L242F, P396L) (antibody)” registered a Relative rate of lysis (ADCC, vs wild type ch4-4-20) in experiment [1] of 2.4.

In turn, “ch4-4-20 MgFc59 (K370E, P396L) (antibody)” gave a Relative rate of lysis (ADCC, vs wild type ch4-4-20) in experiment [1] of 2.47.

“ch4-4-20 MgFc60 (P217S, P396L) (antibody)” had a Relative rate of lysis (ADCC, vs wild type ch4-4-20) in experiment [1] of 1.44.

On to “immunoglobulin with Fc variant D270E (antibody)”, for which the Koff WT/Koff mutant in experiment [2] is 2.24; with FcγRIIB (CD32B) (human) [3], 0.39; in experiment [4], 1.48; in experiment [5] it was 1.25; in the experiment with FcγRIIB (CD32B) (human) [6], 0.39; in experiment [7], 1.48. In experiment [8], the Koff WT/Koff mutant was determined as 1.25.

“immunoglobulin with Fc variant D270E, P396L (antibody)”: the Koff WT/Koff mutant was 2.44 in experiment [2]; 0.89 with FcγRIIB (CD32B) (human) [3]; 1.65 in experiment [4]; 1.38 in experiment [5]; 0.89 with FcγRIIB (CD32B) (human) [6]; 1.65 in experiment [7]. Moreover, the Koff WT/Koff mutant in experiment [8] was 1.38.

Take “immunoglobulin with Fc variant D270E, P396L, Q419H (antibody)”: the Koff WT/Koff mutant in experiment [2] is 1.7; with FcγRIIB (CD32B) (human) [3] it was 0.68; in experiment [5], 1.64; with FcγRIIB (CD32B) (human) [6], 0.68; in experiment [8], 1.64.

With “immunoglobulin with Fc variant F243I, R292P, Y300L, V305I, P396L (antibody)”, the Koff WT/Koff mutant in experiment [2] came to 1.49; in the experiment with FcγRIIB (CD32B) (human) [3], 1.05; in experiment [4], 3.12; in the experiment with FcγRIIB (CD32B) (human) [6], 1.05; in experiment [7], 3.12.

For “immunoglobulin with Fc variant F243L, D270E, G316D, R416G (antibody)”, the Koff WT/Koff mutant came out at 1.22 in experiment [2]; 0.2 in the experiment with FcγRIIB (CD32B) (human) [3]; 1.34 in experiment [4]; 1.5 in experiment [5]; 0.2 with FcγRIIB (CD32B) (human) [6]; 1.34 in experiment [7]. The same substance came in with a Koff WT/Koff mutant in experiment [8] of 1.5.

Take “immunoglobulin with Fc variant F243L, D270E, K392T, P396L (antibody)”: the Koff WT/Koff mutant came out at 1.7 in experiment [2]; 0.44 with FcγRIIB (CD32B) (human) [3]; 2.44 in experiment [4]; 3.16 in experiment [5]; 0.44 with FcγRIIB (CD32B) (human) [6]; 2.44 in experiment [7]. Besides, in experiment [8], the Koff WT/Koff mutant was found to be 3.16.

Regarding “immunoglobulin with Fc variant F243L, D270E, P396L, Q419H (antibody)”, the Koff WT/Koff mutant in experiment [2] was 1.11; in the experiment with FcγRIIB (CD32B) (human) [3] it was 0.26; in experiment [4] it was 1.15; in experiment [5] it was 1.46; in the experiment with FcγRIIB (CD32B) (human) [6] it was 0.26; in experiment [7], 1.15. For the same substance, in experiment [8], the Koff WT/Koff mutant stood at 1.46.

With “immunoglobulin with Fc variant F243L, P247L, D270E, N421K (antibody)”, the Koff WT/Koff mutant in experiment [2] worked out at 0.98; with FcγRIIB (CD32B) (human) [3], 0.32; in experiment [4], 3.45; in experiment [5], 2.3; with FcγRIIB (CD32B) (human) [6], 0.32; in experiment [7] it was 3.45. In addition, the Koff WT/Koff mutant in experiment [8] stood at 2.3.

For “immunoglobulin with Fc variant F243L, P247L, N421K (antibody)”, the Koff WT/Koff mutant is 0.39 in experiment [2]; 0.17 with FcγRIIB (CD32B) (human) [3]; 1.71 in experiment [4]; 1.89 in experiment [5]; 0.17 with FcγRIIB (CD32B) (human) [6]; 1.71 in experiment [7]. In experiment [8], this substance yielded a Koff WT/Koff mutant of 1.89.

Consider “immunoglobulin with Fc variant F243L, P396L (antibody)”, for which the Koff WT/Koff mutant in experiment [2] came to 1.5; with FcγRIIB (CD32B) (human) [3], 2.22; in experiment [4] it was 1.6; in experiment [5], 1.49; with FcγRIIB (CD32B) (human) [6], 2.22; in experiment [7], 1.6. The Koff WT/Koff mutant in experiment [8] came out at 1.49.

In the case of “immunoglobulin with Fc variant F243L, R255L, D270E, P396L (antibody)”, the Koff WT/Koff mutant in experiment [2] was 1.44; in the experiment with FcγRIIB (CD32B) (human) [3], 0.38; in experiment [4], 1.64; in experiment [5], 1.75; with FcγRIIB (CD32B) (human) [6] it was 0.38; in experiment [7], 1.64. Moreover, in experiment [8], the Koff WT/Koff mutant came out at 1.75.

“immunoglobulin with Fc variant K392T, P396L (antibody)”: the Koff WT/Koff mutant in experiment [2] is 1.22; with FcγRIIB (CD32B) (human) [3], 2.35; in experiment [4], 1.81; in experiment [5], 1.49; in the experiment with FcγRIIB (CD32B) (human) [6] it was 2.35; in experiment [7], 1.81. In addition, the Koff WT/Koff mutant in experiment [8] came out at 1.49.

For “immunoglobulin with Fc variant P247L, D270E, Y300L, N421K (antibody)”, the Koff WT/Koff mutant in experiment [2] stood at 1.84; with FcγRIIB (CD32B) (human) [3], 0.8; in experiment [4] it was 1.16; in experiment [5], 2.44.

With “immunoglobulin with Fc variant P396L, Q419H (antibody)”, the Koff WT/Koff mutant turned out to be 0.63 in experiment [2]; 1.33 with FcγRIIB (CD32B) (human) [3]; 1.19 in experiment [4]; 1.19 in experiment [5]; 1.33 with FcγRIIB (CD32B) (human) [6]; 1.19 in experiment [7]. Moreover, the Koff WT/Koff mutant in experiment [8] was 1.19.

As for “immunoglobulin with Fc variant R255L, D270E, R292G, P396L (antibody)”, the Koff WT/Koff mutant is 1.05 in experiment [2], 0.65 in the experiment with FcγRIIB (CD32B) (human) [3] and 0.65 with FcγRIIB (CD32B) (human) [6].

As to “immunoglobulin with Fc variant R255L, D270E, Y300L, P396L (antibody)”, the Koff WT/Koff mutant in experiment [2] was found to be 2.6; with FcγRIIB (CD32B) (human) [3], 0.87; in experiment [4], 1.74; in experiment [5], 1.52; with FcγRIIB (CD32B) (human) [6] it was 0.87; in experiment [7] it was 1.74. This substance came in with a Koff WT/Koff mutant in experiment [8] of 1.52.

Turning to “immunoglobulin with Fc variant R255L, P396L (antibody)”, the Koff WT/Koff mutant was 1.34 in experiment [2]; 2.22 with FcγRIIB (CD32B) (human) [3]; 1.39 in experiment [4]; 1.09 in experiment [5]; 2.22 with FcγRIIB (CD32B) (human) [6]; 1.39 in experiment [7]. This substance returned a Koff WT/Koff mutant in experiment [8] of 1.09.

For the substance “immunoglobulin with Fc variant R292G (antibody)”, the Koff WT/Koff mutant in experiment [2] is 0.14; with FcγRIIB (CD32B) (human) [3], 0.25; in experiment [5] it was 1.54; with FcγRIIB (CD32B) (human) [6], 0.25; in experiment [8] it was 1.54.

Take “immunoglobulin with Fc variant R292P, V305I (antibody)”: the Koff WT/Koff mutant in experiment [2] was 1.56 and 0.75; in experiment [4] it was 2.11 and 1.28; in experiment [5], 1.59 and 1.32; in experiment [7], 1.28 and 2.11; in experiment [8], 1.32 and 1.59.

As for “immunoglobulin with Fc variant R292P, V305I, P396L (antibody)”, the Koff WT/Koff mutant in experiment [2] is 1.5; in the experiment with FcγRIIB (CD32B) (human) [3], 0.92; in experiment [4] it was 1.9; in experiment [5], 1.85; in the experiment with FcγRIIB (CD32B) (human) [6], 0.92; in experiment [7], 1.9. In experiment [8], this substance showed a Koff WT/Koff mutant of 1.85.

Take “immunoglobulin with Fc variant V284M, R292P, K370N (antibody)”: the Koff WT/Koff mutant in experiment [2] amounted to 1.79; with FcγRIIB (CD32B) (human) [3] it was 0.37; in experiment [4], 1.37; in experiment [5] it was 1.14; with FcγRIIB (CD32B) (human) [6], 0.37; in experiment [7] it was 1.37. In experiment [8], this substance displayed a Koff WT/Koff mutant of 1.14.
